According to US20230194525A1, “PEPTIDE BASED PROBES FOR THE DETECTION OF SARS-COV-2” (priority 2021, published 2023):
The star is where a group is joined. FITC = O=C1OC2(c3ccc(O)cc3Oc3cc(O)ccc32)c2ccc(NC(=S)*)cc21; DABSYL = CN(C)c1ccc(/N=N/c2ccc(S(=O)(=O)*)cc2)cc1

Biological target: L subunits (L1, L2, L3)
Assay: Titration of R units against L subunits, fluorescence intensity after 2 hours
Format: binding
Details: R 400 nM to 100 pM against 50 nM L in 1×PBS, pH 7.4, 20-25° C., only rank order given
Protocol: Residual fluorescence can be due to remaining unreacted L subunits.
In FIG. 4B, R units (400 nM to 100 pM in 1×PBS, pH 7.4) are titrated against 50 nM of L subunits in 1×PBS, pH 7.4 at 20-25° C. and the fluorescence intensities measured after 2 hours. […] All the measurements were performed in triplicates (n=3) and the error bar represents the standard deviation of the data. Statistical analysis was performed using Unpaired t test in GraphPad software and the calculated P is represented as follows: **P<0.01.

Molecule	affinity of R subunits toward L subunits (Kd values), preferential order
{Lys(DABSYL)}QELAAIEWELAANERELAAIEGCFNKTFLDKFNHEAEDLFYQSSLARIAALKYKNAALKKKIAALKQ{LYS(FITC)} (peptide) K(DABSYL)QELAAIEWELAANERELAAIEGCFNKTFLDKFNHEAEDLFYQSSLARIAALKYKNAALKKKIAALKQK(FITC)	RL3>RL1>RL2
{Lys(DABSYL)}QELAAIEWELAANERELAAIEGCFNKTFLDKFNHEAEDLFYQSSLARIAALKYKNAALKKKIA{LYS(FITC)} (peptide) K(DABSYL)QELAAIEWELAANERELAAIEGCFNKTFLDKFNHEAEDLFYQSSLARIAALKYKNAALKKKIAK(FITC)	RL3>RL1>RL2
{Lys(DABSYL)}QELAAIEWELAANERELAAIEGCFNKTFLDKFNHEAEDLFYQSSLARIAALKYKNAALK{LYS(FITC)} (peptide) K(DABSYL)QELAAIEWELAANERELAAIEGCFNKTFLDKFNHEAEDLFYQSSLARIAALKYKNAALKK(FITC)	RL3>RL1>RL2
